# Source: article PMC7956722 (Molecules, 2021)
# Read-outs that look alike come from different tables or passages of the source. Non-standard residues stand in square brackets, D forms with d. Residues, ends and D or L forms follow the SMILES beside them. dPhe(4-Cl) = N[C@H](Cc1ccc(Cl)cc1)C(=O)O; d2Nal = N[C@H](Cc1ccc2ccccc2c1)C(=O)O; dCit = NC(=O)NCCC[C@@H](N)C(=O)O; d3Pal = N[C@H](Cc1cccnc1)C(=O)O
# T1: LHRH receptors (membrane receptors of human bladder cancer cells) (Homo sapiens, UniProt P30968)
# T1 construct: membrane homogenates of bladder cancer specimens containing 60–150 µg protein were incubated in duplicate; from tissue; host or cells: surgically resected human bladder cancer (transitional cell carcinoma) tissue, crude membrane fractions
# T1 sequence (P30968 1-328): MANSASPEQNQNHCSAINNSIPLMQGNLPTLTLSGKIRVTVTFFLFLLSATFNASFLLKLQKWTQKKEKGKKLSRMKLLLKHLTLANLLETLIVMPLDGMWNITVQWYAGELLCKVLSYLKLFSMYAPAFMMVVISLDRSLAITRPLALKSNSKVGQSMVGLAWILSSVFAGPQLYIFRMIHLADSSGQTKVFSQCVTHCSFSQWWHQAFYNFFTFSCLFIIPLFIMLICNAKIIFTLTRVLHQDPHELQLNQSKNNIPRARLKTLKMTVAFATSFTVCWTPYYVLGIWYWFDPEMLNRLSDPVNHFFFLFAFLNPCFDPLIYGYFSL
# T2: AN-152 (Homo sapiens, pGlu1, D-Lys6 linked through glutaric acid spacer to doxorubicin, C-terminal amide)
# T2 chain: QHWSYKLRPG
# T3: [D-Lys6]LHRH (Homo sapiens, pGlu1, D-Lys6, C-terminal amide)
# T3 chain: QHWSYKLRPG
# T4: [125I][D-Trp6]LHRH (Homo sapiens, pGlu1, D-Trp6, C-terminal amide, 125I)
# T4 chain: QHWSYWLRPG
# What was measured:
# [1] = target: T1, LHRH receptors (membrane receptors of human bladder cancer cells); experiment: Ligand competition assay: displacement of [125I][D-Trp6]LHRH by unlabeled peptides; type: binding; settings: for displacement of [125I][D-Trp6]LHRH by unrelated peptides: membrane fractions of human bladder cancer specimens, increasing concentrations, mean of duplicate or triplicate determinations
# Method: Analysis of the typical displacement of radiolabeled [D-Trp^6] […] Biochemical parameters essential to establish the identity of specific binding sites were also determined.
# Each point represents mean of duplicate or triplicate determinations.
# The assay was performed as described earlier. […] At the end of the incubation, 125 µL aliquots of suspension were transferred onto the top of 1 mL of ice-cold binding buffer containing 1.5% BSA in microcentrifuge tubes. The tubes were centrifuged at 12,000× g for 3 min at 4 °C. Supernatants were aspirated and the pellet was counted in a gamma counter. Protein concentration was determined by the method of Bradford using a Bio-Rad protein assay kit (Bio-Rad Laboratories, Hercules, CA, USA). The final binding affinities were expressed as IC50 values and were calculated by using the LIGAND-PC computerized curve-fitting program of Munson and Rodbard.
# [2] = test system: bladder cancer in nude mice; settings: Szepeshazi et al., cited from earlier work
# Source text: (§1) Our findings are in agreement with the results of Bahk et al. (2008). […] However, there is no information about the role of peptide receptors in bladder carcinogenesis. The signaling pathways have the potential to be an important area of bladder cancer research, leading to the development of effective therapeutic approaches.
# [3] = test system: various human cancers; settings: trials completed or terminated; cited from earlier work
# Source text: as §1
# [4] = test system: LHRH-receptor-positive models of human ovarian, mammary, endometrial, and prostatic cancers; settings: cited from earlier work
# [5] = test system: metastatic bladder cancer; settings: first-line therapy, cisplatin-based chemotherapy; cited from earlier work
# Source text: More than 90% of urothelial tumors originate from the urinary bladder, 8% from the renal pelvis, and 2% from the ureter and urethra. Histologically, the majority (around 90%) of bladder cancer is described as the type of TCC and the rest are squamous cell carcinoma, adenocarcinoma, and rarely, small cell carcinoma. Despite advancements in surgical techniques and chemotherapy, the overall survival in metastatic bladder cancer has not improved over the last 20 years. The first-line therapy is cisplatin-based chemotherapy with the response rate of approximately 50% [[4],[31] ...
# [6] = test system: bladder carcinogenesis; design: method as in PMID 8551710; settings: cited from earlier work
# Source text: The effects of the androgen regulation system and LHRH agonist on bladder carcinogenesis have been investigated in animals [10].
# [7] = target: T2, AN-152; experiment: radioligand competition
# [8] = target: T3, [D-Lys6]LHRH; experiment: radioligand competition
# [9] = target: T4, [125I][D-Trp6]LHRH; experiment: radioligand competition (patient 3)
# [10] = target: T4, [125I][D-Trp6]LHRH; experiment: radioligand competition (patient 7)
# [11] = target: T4, [125I][D-Trp6]LHRH; experiment: radioligand competition (patient 8)
# [12] = target: T4, [125I][D-Trp6]LHRH; experiment: radioligand competition (patient 6)
# [13] = target: T4, [125I][D-Trp6]LHRH; experiment: radioligand competition (patient 12)
# [14] = target: T4, [125I][D-Trp6]LHRH; experiment: radioligand competition (patient 18)
# [15] = target: T4, [125I][D-Trp6]LHRH; experiment: radioligand competition (patient 14)
# [16] = target: T4, [125I][D-Trp6]LHRH; experiment: radioligand competition (patient 10)
# [17] = target: T4, [125I][D-Trp6]LHRH; experiment: radioligand competition (patient 19)
# [18] = target: T4, [125I][D-Trp6]LHRH; experiment: radioligand competition (patient 22)
# [19] = target: T4, [125I][D-Trp6]LHRH; experiment: radioligand competition, Scatchard (mean of 10 bladder cancer specimens)
molecule,measurement,setting,value
growth hormone-releasing hormone (GHRH): unrelated peptide,displacement of [125I][D-Trp6]LHRH by unrelated peptides,[1],did not displace the radioligand
COc1cccc2c1C(=O)c1c(O)c3c(c(O)c1C2=O)C[C@@](O)(C(=O)COC(=O)CCCC(=O)NCCCC[C@@H](NC(=O)[C@H](Cc1ccc(O)cc1)NC(=O)[C@H](CO)NC(=O)[C@H](Cc1c[nH]c2ccccc12)NC(=O)[C@H](Cc1c[nH]cn1)NC(=O)[C@@H]1CCC(=O)N1)C(=O)N[C@@H](CC(C)C)C(=O)N[C@@H](CCCNC(=N)N)C(=O)N1CCC[C@H]1C(=O)NCC(N)=O)C[C@@H]3O[C@H]1C[C@H](N)[C@H](O)[C@H](C)O1 [AN-152],binding affinity relative to free carrier [D-Lys6]LHRH (in words),"[1]; compared with free peptide carrier [D-Lys6]LHRH, human bladder cancer membranes",only slightly lower binding affinity to specific LHRH receptors than the free peptide carrier
same,binding to LHRH receptors (in words),"[1]; displacement of [125I][D-Trp6]LHRH, human bladder cancer membranes",could effectively bind to LHRH receptors at low nanomolar concentration
same,effect compared with DOX,[2]; bladder cancer in nude mice,greater effects than DOX
same,growth inhibition of bladder cancer,[2]; nude mice,inhibits powerfully the growth of the bladder cancer in nude mice
same,toxicity compared with DOX,[2]; nude mice,lesser toxicity
same,outcome of clinical trials,[3],some of these studies did not achieve their primary endpoint
same,inhibition of tumor growth in vivo versus respective radicals,"[4]; human ovarian, mammary, endometrial, prostatic cancers xenografted into nude mice",much more effective in vivo than their respective radicals in inhibiting tumor growth
same,toxicity versus respective radicals,[4]; nude mice,less toxic
N.N.[Cl][Pt][Cl] [cisplatin],response rate,[5],approximately 50%
CC(=O)N[C@H](Cc1ccc2ccccc2c1)C(=O)N[C@H](Cc1ccc(Cl)cc1)C(=O)N[C@H](Cc1cccnc1)C(=O)N[C@@H](CO)C(=O)N[C@@H](Cc1ccc(O)cc1)C(=O)N[C@H](CCCNC(N)=O)C(=O)N[C@@H](CC(C)C)C(=O)N[C@@H](CCCNC(=N)N)C(=O)N1CCC[C@H]1C(=O)N[C@H](C)C(N)=O [Cetrorelix] (Ac-[d2Nal][dPhe(4-Cl)][d3Pal]SY[dCit]LRP[dA]-NH2),IC50,[1],0.86 nM
vasoactive intestinal peptide (VIP): unrelated peptide,displacement of [125I][D-Trp6]LHRH by unrelated peptides,[1],did not displace the radioligand
CC(C)C[C@H](NC(=O)[C@@H](CCCCN)NC(=O)[C@H](Cc1ccc(O)cc1)NC(=O)[C@H](CO)NC(=O)[C@H](Cc1c[nH]c2ccccc12)NC(=O)[C@H](Cc1cnc[nH]1)NC(=O)[C@@H]1CCC(=O)N1)C(=O)N[C@@H](CCCNC(=N)N)C(=O)N1CCC[C@H]1C(=O)NCC(N)=O [[D-Lys^6]LHRH],IC50,[1]; read-out: Receptor binding potency (IC50),0.98 nM
CC(C)C(=O)Nc1ccc([N+](=O)[O-])c(C(F)(F)F)c1 [flutamide],effect on bladder carcinogenesis,[6],suppressed the LHRH-induced promotion of carcinogenesis
epidermal growth factor: unrelated peptide,displacement of [125I][D-Trp6]LHRH by unrelated peptides,[1],did not displace the radioligand
human growth hormone (hGH): unrelated peptide,displacement of [125I][D-Trp6]LHRH by unrelated peptides,[1],did not displace the radioligand
somatostatin: unrelated peptide,displacement of [125I][D-Trp6]LHRH by unrelated peptides,[1],did not displace the radioligand
LHRH receptor type I (protein) MANSASPEQNQNHCSAINNSIPLMQGNLPTLTLSGKIRVTVTFFLFLLSATFNASFLLKLQKWTQKKEKGKKLSRMKLLLKHLTLANLLETLIVMPLDGMWNITVQWYAGELLCKVLSYLKLFSMYAPAFMMVVISLDRSLAITRPLALKSNSKVGQSMVGLAWILSSVFAGPQLYIFRMIHLADSSGQTKVFSQCVTHCSFSQWWHQAFYNFFTFSCLFIIPLFIMLICNAKIIFTLTRVLHQDPHELQLNQSKNNIPRARLKTLKMTVAFATSFTVCWTPYYVLGIWYWFDPEMLNRLSDPVNHFFFLFAFLNPCFDPLIYGYFSL,IC50,[7],1.39 nM
same,IC50,[8],0.98 nM
same,Kd,[9],5.76 nM
same,Kd,[10],4.94 nM
same,Kd,[11],6.26 nM
same,Kd,[12],6.85 nM
same,Kd,[13],3.61 nM
same,Kd,[14],4.38 nM
same,Kd,[15],4.92 nM
same,Kd,[16],5.02 nM
same,Kd,[17],3.83 nM
same,Kd,[18],4.31 nM
same,Kd,[19],4.98 nM
